Test results from patent US20180148504A1.

Key:
[1] = molecular target: recombinant purified FRα (ECL assay calibrator) (human) (UniProt P15328); test: ECL sandwich capture 24H8.F3 / detection 30G6.G6.G4.E9; calibrator incubated overnight with 10 µg/mL MORAb-003
[2] = molecular target: endogenous folate receptor alpha in human serum and plasma samples (human) (UniProt P15328); test: ECL sandwich competition; competitors 24H8.D3 capture / 19D4.B7 detection; plasma samples; MORAb-003 100 µg/mL
[3] = molecular target: recombinant purified FRα (ECL assay calibrator) (human) (UniProt P15328); test: ECL sandwich capture 24H8.D3 / detection 30G6.G6.G4.E9; calibrator incubated overnight with 10 µg/mL MORAb-003
[4] = molecular target: recombinant purified FRα (ECL assay calibrator) (human) (UniProt P15328); test: ECL sandwich capture 30G6.G6.G4.E9 / detection 1C6.E12.G8; calibrator incubated overnight with 10 µg/mL MORAb-003
[5] = molecular target: recombinant purified FRα (ECL assay calibrator) (human) (UniProt P15328); test: ECL sandwich capture 24H8.F3 / detection 19D4.B7; calibrator incubated overnight with 10 µg/mL MORAb-003
[6] = molecular target: endogenous folate receptor alpha in human serum and plasma samples (human) (UniProt P15328); test: ECL sandwich competition; competitors 24H8.D3 capture / 19D4.B7 detection; serum samples; MORAb-003 100 µg/mL
[7] = molecular target: endogenous folate receptor alpha in human serum and plasma samples (human) (UniProt P15328); test: ECL sandwich capture 6A2.G7 / detection 6A2.G7; serum incubated overnight with 10 µg/mL MORAb-003; no % sign in this cell
[8] = molecular target: endogenous folate receptor alpha in human serum and plasma samples (human) (UniProt P15328); test: ECL sandwich capture 19D2.G9 / detection 19D4.B7; serum incubated overnight with 10 µg/mL MORAb-003
[9] = molecular target: recombinant purified FRα (ECL assay calibrator) (human) (UniProt P15328); test: ECL sandwich competition; competitors 9F3 capture / 24F12 detection; FRα standard STD08; MORAb-003 50 µg/mL
[10] = molecular target: endogenous folate receptor alpha in human serum and plasma samples (human) (UniProt P15328); test: ECL sandwich capture 19D4.B7 / detection 1A8.G11.E7; serum incubated overnight with 10 µg/mL MORAb-003
[11] = molecular target: recombinant purified FRα (ECL assay calibrator) (human) (UniProt P15328); test: ECL sandwich capture 1A8.G11.E7 / detection 19D4.B7; calibrator incubated overnight with 10 µg/mL MORAb-003
[12] = molecular target: recombinant purified FRα (ECL assay calibrator) (human) (UniProt P15328); test: ECL sandwich competition; competitors 9F3 capture / 24F12 detection; FRα standard STD06; MORAb-003 50 µg/mL
[13] = molecular target: endogenous folate receptor alpha in human serum and plasma samples (human) (UniProt P15328); test: ECL sandwich capture 1A8.G11.E7 / detection 24H8.F3; serum incubated overnight with 10 µg/mL MORAb-003
[14] = molecular target: recombinant purified FRα (ECL assay calibrator) (human) (UniProt P15328); test: ECL sandwich capture 6A2.G7 / detection 30G6.G6.G4.E9; calibrator incubated overnight with 10 µg/mL MORAb-003
[15] = molecular target: endogenous folate receptor alpha in human serum and plasma samples (human) (UniProt P15328); test: ECL sandwich capture 19D4.B7 / detection 19D2.G9; serum incubated overnight with 10 µg/mL MORAb-003
[16] = molecular target: recombinant purified FRα (ECL assay calibrator) (human) (UniProt P15328); test: ECL sandwich capture 24H8.F3 / detection 6A2.G7; calibrator incubated overnight with 10 µg/mL MORAb-003
[17] = molecular target: recombinant purified FRα (ECL assay calibrator) (human) (UniProt P15328); test: ECL sandwich capture 30G6.G6.G4.E9 / detection 5C12.H8; calibrator incubated overnight with 10 µg/mL MORAb-003
[18] = molecular target: endogenous folate receptor alpha in human serum and plasma samples (human) (UniProt P15328); test: ECL sandwich capture 26A9.C4 / detection 19D4.B7; serum incubated overnight with 10 µg/mL MORAb-003
[19] = molecular target: recombinant purified FRα (ECL assay calibrator) (human) (UniProt P15328); test: ECL sandwich competition; competitors 9F3 capture / 24F12 detection; FRα standard STD01; MORAb-003 10 µg/mL
[20] = molecular target: endogenous folate receptor alpha in human serum and plasma samples (human) (UniProt P15328); test: ECL sandwich capture 28H12.G9 / detection 19D4.B7; serum incubated overnight with 10 µg/mL MORAb-003
[21] = molecular target: recombinant purified FRα (ECL assay calibrator) (human) (UniProt P15328); test: ECL sandwich capture 26A9.C4 / detection 19D4.B7; calibrator incubated overnight with 10 µg/mL MORAb-003
[22] = molecular target: recombinant purified FRα (ECL assay calibrator) (human) (UniProt P15328); test: ECL sandwich capture 6A2.G7 / detection 1D2.G8.G10; calibrator incubated overnight with 10 µg/mL MORAb-003
[23] = molecular target: recombinant purified FRα (ECL assay calibrator) (human) (UniProt P15328); test: ECL sandwich competition; competitors 9F3 capture / 24F12 detection; FRα standard STD04; MORAb-003 50 µg/mL
[24] = molecular target: recombinant purified FRα (ECL assay calibrator) (human) (UniProt P15328); test: ECL sandwich capture 26A9.C4 / detection 30G6.G6.G4.E9; calibrator incubated overnight with 10 µg/mL MORAb-003

Sequence of recombinant purified FRα (ECL assay calibrator) (human) (P15328 25-234 limits assumed): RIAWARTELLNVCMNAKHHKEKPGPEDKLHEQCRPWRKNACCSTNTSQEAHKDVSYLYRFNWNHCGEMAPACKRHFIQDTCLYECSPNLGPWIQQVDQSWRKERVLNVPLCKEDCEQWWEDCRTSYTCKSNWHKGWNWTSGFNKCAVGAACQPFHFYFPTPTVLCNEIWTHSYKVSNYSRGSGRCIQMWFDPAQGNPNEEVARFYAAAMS
Sequence of endogenous folate receptor alpha in human serum and plasma samples (human) (P15328 25-234 limits assumed, form in doubt): as the sequence (P15328 25-234 limits assumed) above

Drug Suppression of Cal Signal at 500 pg/mL [1]: -6%
percent inhibition (median, plasma) [2]: 4%
Drug Suppression of Cal Signal at 500 pg/mL [3]: 0%
Drug Suppression of Cal Signal at 500 pg/mL [4]: -7%
Drug Suppression of Cal Signal at 500 pg/mL [5]: 9%
percent inhibition (median, serum) [6]: 3%
Drug suppression of serum [7]: -45.8
Drug suppression of serum [8]: 4.68%
% of signal without MORAb-003 (MORAb-003 interference) [9]: 115%
Drug suppression of serum [10]: -4.92%
Drug Suppression of Cal Signal at 500 pg/mL [11]: -16%
% of signal without MORAb-003 (MORAb-003 interference) [12]: 78%
Drug suppression of serum [13]: -61.3%
Drug Suppression of Cal Signal at 500 pg/mL [14]: -1%
Drug suppression of serum [15]: -3.38%
Drug Suppression of Cal Signal at 500 pg/mL [16]: 7%
Drug Suppression of Cal Signal at 500 pg/mL [17]: -7%
Drug suppression of serum [18]: -59.7%
% of signal without MORAb-003 (MORAb-003 interference) [19]: 68%
Drug suppression of serum [20]: -73.2%
Drug Suppression of Cal Signal at 500 pg/mL [21]: 72%
Drug Suppression of Cal Signal at 500 pg/mL [22]: -7%
% of signal without MORAb-003 (MORAb-003 interference) [23]: 57%
Drug Suppression of Cal Signal at 500 pg/mL [24]: -28%
B1: farletuzumab (MORAb-003) (antibody, part only; not given: Constant regions, V domains shown, not shown: another chain or arm of the molecule)
VH: EVQLVESGGGVVQPGRSLRLSCSASGFTFSGYGLSWVRQAPGKGLEWVAMISSGGSYTYYADSVKGRFAISRDNAKNTLFLQMDSLRPEDTGVYFCARHGDDPAWFAYWGQGTPVTVSS
VL: DIQLTQSPSSLSASVGDRVTITCSVSSSISSNNLHWYQQKPGKAPKPWIYGTSNLASGVPSRFSGSGSGTDYTFTISSLQPEDIATYYCQQWSSYPYMYTFGQGTKVEIK
